# Experimental data: the DeepSol protein solubility set
# Experiment: soluble on expression in E. coli; label from the status in PepcDB or PDB records
row,Sequence,soluble on expression in E. coli
1,MGSDKIHHHHHHMKVEVNSQALADAVAWTTRVIDARPATPILAGIRLEAIDGTLQLSAFNYAISARHHIEAGVDEAGSVLVLGKLLADITKSLPAAKTYLSTDGSTMTITSGKSTFTMQLMPESEYPDLPVVPTKLGQVDSPTFAQAVNQASVAVSREENRPVLTGIRVQFQGDKVIMSSTDRFRLARSSFTWTPEDATISTTALVRGSLLRDMARSLDEHQNVTIDFDADNPSLLGFENAGRVSTSQLIDGEFPAVDRLYADEYPIHAVINKQALIDAIKRVSLVAERNAPIRMVFSGQELTLSAGTADEAQAKEILDIDMDGEDITVAFNPSYLVDGLSAISEPFVRMKMTTAVKPVEFNGQQEADSDESMDYRYLLVPMRFNN,not soluble
2,GPGSMSANDVQNPPVEDDEVPTLEAADTQQASKPSKRYAKAMAKMGLKPEPNISKVHIRKRAALSFVVNQPEVYRFPGTNTFLIFGEAQLGDTTMQTQEAAARAVSGALVEEVGTAGEETSELAGETPAAAAPSESKQTPDDVEIVEGEFDDKEIAVVMAQGKTDRIGAIRALRNNKGDIVNAIMELTMDPN,not soluble
3,MGSDKIHHHHHHMADTTPDVETDKCDDLLESLRRGRPAAGQDPVKRSQIIDGARRVFIEKGFEAASMNDITREAGVSKGTIYVYFANKEELFEALIEEERGTIFKNMYDMLDRADDLRQTLVKFGKVLSMKITSARVIQAQRTVIGASDRIPDMGARFYERGPKRGHDKVVKFLNAAIERGLLKIDDVDLAAYQFTELCLAGLFRQCIFAYRTKAPSQEEIDHIVRSGVDMFLKNYGTEQLAEEESHQMIALEAKA,not soluble
4,MGSDKIHHHHHHMSNLLEVNSLNVQFNYDETTVQAVKNVSFELRKKHILGIVGESGSGKSITAKSILGLLPDYPDHTLTGEIIFNGQSLNNLSTSALQQIRGKDISMIFQDPLSSLNPRLTIGKQITEVLFQHKRVSKSEAKSMTINILEKVGIKHATRQFDAYPHELSGGMRQRVMIAMALILKPQILIADEPTTALDASTQNQLLQLMKSLYEYTETSIIFITHDLGAVYQFCDDVIVMKDGSVVESGTVESIFKSPQHTYTKRLIDAIPDIHQTRPPRPLNNDILLKFDRVSVDYTSPSGSLYRAVNDINLAIRKGETLGIVGESGSGKSTLAKTVVGLKEVSEGFIWYNELPLSLFKDDELKSLRQEIQMIFQDPFASINPRFKVIDVIKRPLIIHGKVKDNDDIIKTVVSLLEKVGLDQSFLYRYPHELSGGQRQRVSIARALAVEPKVIVCDEAVSALDVSIQKDIIELLKQLQLDFGITYLFITHDMGVINEICDRVAVMKNGEIVELNNTEDIIKHPQSDYAKQLISEVAVIAK,not soluble
5,MIFVLGGTSDSLLISDWLTETKRPFILSVATDYGETLAKQHAEKVFCGRLAKEAMLAKWQLEQIKLVIDATHPFATIVSETAMEACKEAGIPYIRFERTSEQTDNTYLVDDINEACKVAAKLGQRIFLTTGSKNLPEFVAGLKQQHIIARILPVSDVIRSAEELGLVADQIIGMKGPFTKEANRTQLEMTQADVLITKESGKQGGFQEKLTAAAELNIPVIVIRRKKLNYPIEINHLTELPEILTQLEV,not soluble
6,MWKFATRLGLESVDTIAATNPREAIAAVAAGQADYACVAIENSVDGPVTPTFDALATIDGVRIFHELDLPIAFAIMQRTGAPLRRFATHPVAYQQVKTWLAANAPAAEFVPASSNAEAARMAKENIVDFAAAPARAAEVYGLDIIADGVADVTGARTRFVLVGHADT,not soluble
7,MSCKPNILVLFYGYGSIVELAKEIGKGAEEAGAEVKIRRVRETLPPEFQSRIPFDKVKDIPEVTLDDMRWADGFAIGSPTRYGNMAGGLKTFLDTTAILWKDNVLYGKPVTFFTEASTVHGGHETTILTMSTYAYHFGMIIVPIGYGIPELFQTTTGGGPYGATHLGSKEELDEMERKIARFQGKRITEVAKAIKCCNK,soluble
8,GSHSLRYFDIAVSRPGLGEPRYISVGYVDDTEFARYDSDAENRRYQPRARWMEREGPEYWERNTPIYKGKEQTFRVNLRTLRGYYNQSEGGSHTIQEMYGCDVGSDGSLLRGYEQFAYDGRDYIALNEDLKTWTAADFAARISRNKLERDGFADLHRAYLEGECVESLRRYLELGKETLLRSDPPKAHVTLHPRPEGDVTLRCWALGFYPADITLTWQLNGEDLTQDMELVETRPAGDGTFQKWASVVVPLGKEQNYTCRVEHEGLPKPLSQRWEPLEHHHHHH,soluble
9,MADQHPTAQRPIDAHGIIGDMRSAALVDDQGSIDFFCWPEFDSPSIFCSLLDSPAAGIFELAPVLADARRQQIYLPDSNVLQTRWLGTEAVVEVTDLLTIDDDPEQLPLLIRRVRVVSGQATLRLHCAPRLDYLEHHHHHH,not soluble
10,MGMIQLQNPSHPTGLLCKANQMRLAGTLCDVVIMVDSQEFHAHRTVLACTSKMFEILFHRNSQHYTLDFLSPKTFQQILEYAYTATLQAKAEDLDDLLYAAEILEIEYLEEQCLKMLETIQ,soluble
11,MEFHFFGTGSGVPSIERNVSACAVRFLQQRGKQWLFDCGEATQHQILRSSIALGKIERIFITHLHGDHIFGLPGLLGSRSFQGGENPLFLYGPKGIRSFVETALQVSNTHVKYELTIEEFSEPGLLFHEEGFKVETILLDHVMPCYAFKVTEDDRPGELLVDRLKAKGVPPGPLYRKIQQGETVELPTGERLEANAFLGPPKRGRSFVLAGDTRPVKELIPFAKNVNVLIHEATFLDDKKGHAHEYGHSTMADAIQLAKQANVDHLILTHISSRYHDMSDELQKKAQNAFANAVVAHDFYVFHLPLAKGLEHHHHHH,not soluble
12,MKKLAFAITAASGAAAVLSHHDAEASTQHKVQSGESLWTIAQQYNTSVESIKQNNNLSNNMVFPGQVINVGGSASQNTSSNTSSSSASSHTVVAGESLNIIANKYGVSVDALMQANHLNGYLIMPNQILTIPNGGSGSGSGGTATQTSGNYTSPSFNHQNLYTEGQCTWYVFDKRSQAGKPISTYWSDAKYWASNAANDGYQVDNTPSVGAIMQSTPGPYGHVAYVERINGDGSILISEMNYANGPYNMNYRTIPASEVSSYAFIHLEHHHHHH,not soluble
13,SAQQRALPQSKETLLQSYNKRLKDDIKSIMDNFTEIIKTAKIEDETQVSRATQGEQDNYEMHVRAANIVRAGESLMKLVSDLKQFLILNDFPSVNEAIDQRNQQLRTLQEECDRKLITLRDEISIDLYELEEEYYSSRYK,soluble
14,MSLSNHSSDIEVGHSMNLTNHFLVAMPSMKDPYFKRSVIYICEHNQDGAMGLMINAPIDITVGGMLKQVDIEPAYPQSHQENLKKPVFNGGPVSEDRGFILHRPRDHYESSMKMTDDIAVTTSKDILTVLGTEAEPEGYIVALGYSGWSAGQLEVELTENSWLTIEADPELIFNTPVHEKWQKAIQKLGISPAQLSSDAGHEGGSHHHHHH,soluble
15,MGSDKIHHHHHHMGRRLRVEYLGAMYHVVQRGNNREFIFGRPDERDYLIEQVGNAVKVDGVTVFAYVVMSNHYHLLLRTDGEFLSKVMHRVNTRYSRFFNCDSGRDRTGVVFEGRYKAILVQNDDYLLSLVRYIHRNPLRAGIVSRFCDYRWSSDACYRQQGNGPGGGDFVNCDLILRMFSDKKQIALREYKRFMENDDGKDWENIPCIGDDSFAQLAEPRKEKAGRVSLDEILINTGVDNEEFQLIKQGSRKRLLQKYKIAFTGEAIGQGYTMREIGQHIKLSHVAISHLFNSKQDSK,not soluble
16,MGSDKIHHHHHHMRNCIIAQSGGPTAVINASAVGIYEKNLETKYFDKVYFGINGIEGILNKNIIDSDSLNKDNVLNLKQTPSSGLGSCRYKLADYKINSYDYDRVINILDEYEIDTLFYIGGNDSMDTVMKFSQYCKNTTCKIKFIGIPKTIDNDLLGTDNCPGFGSAAKLISTLIMETYLDFSIYKNNGIFIVETMGRDTGWLAASSSLARLNDTPLVDLIYLPEIDFYEDKFIEDVRKIFKEKNKAYIVASEGIRDKYGNFICEQKTSAHDKFGHSQLGGVSNYLKNLIVSSSITTRVKTLELGVIQRCAMHLASDTDLKQAAEVGAYGIELSKKGYTGVMAIINRTCNNPYKYEVSHTDISKIANKTKYFPKEWINEECNYITDEALNYLYPLIQGKPDIKYKNGLPYFSIIY,not soluble
17,SHPGIDSMSSNINCENNPFSFYGNPHKSVIIHGKEGTELLKEKGEDCKTFENSQQYFLWCCVQQQMYHYQLLSTAFASYGFEPPRIPGAFPHHIPPIFNGSMKCLRDREVFNQSGFLYVNVSPDTYQETRQEAPVEQRNQWSEKSKTTSKKSICKVLFECTNSSLLENAENRSIFSKQGSGSHVGENSKNPSEDSGQSGRLSQNATAEHNVLEKHLQEEYQMAKNTVNESFDSLKECSAASVIKGSYLLSQVVHIPEDAIEPEIPPDLQGPGGHVFLRMLSRSWRQYKRALEHNE,soluble
18,MGSDKIHHHHHHMAEQQKTAAATAEAEAIDLGEFSGLLEKDFKVKKDDSEKLQQLVRNLALAAQSRSETTTISSNAIKSIKSLIAGIDKMLTTQVNEILHAPEVREMEGTWRGLWYLINNTETDTKLKIRVMNISKEQLADTLEDYEGQMWDQSPIFKKVYTDEYSMLGGEPIGCIIGAYEFSNHPRDVGLLRNISGVCASAHTPFIAAASPRLFRMDSWQELPNPQDLQMIVNNPAYASWQSLRESEDARYIGLTMPRVLARLPYGSETVPVKGFTFEEEVGGDHNKYVWMNAAFPMGVNINRSHKLYGWGTQIRGVENGGTVLNLPVHAFPTDDGSIAMKCPTEVAIDDRREAELAKLGLMPILHRKNTDLAAFIGAHSLQDDETRAGRLVDPDAQSNERLSANLPYLFPVSRFAHYLKAIARDKIGSFKERTDMEIWLTEWINRYVLANPAFADDKARAKRPLAAAEVQVDSVEGRPGYYNARFYLRPHYQLEGINASLRLVSELPSVKG,not soluble
19,MGSDKIHHHHHHMSDKHYDALPKAHTTYANIVKSLLPIGNNGKISRDELPQATYFVDDLHIDQNNLNDYRKICGFADNGNVPITYFSVLSQALQMNMMVKEPFPFAMLGLVHVDNSVTQYRAIGEIETVAMSVMFDNLRDHAQGQQFDFVTTVKSADEIIWEGTSTYLSRSKKPATSKDKKSTPRPVTVKPSINKEGVHSIFEVPEDIGRRYAFVSGDFNLIHLHPLSARAFGFPKAIAHGMWSKAKCLAMMGELPDACTVEVSFKLPIFLPSEVELITDPLAQLSSTEDTCQFGLFSAKNDKPHLAGVIALRDENK,not soluble
20,MGSDKIHHHHHHMRRKIPSSASLQAFDAAARHGNFARAAEELSLTEGAISRQIARLEALLNCKLFDRMGSRVKLNPVGAHYAHHVRETLDRLERDTQYIMGMPEGSKSLDIAVLPTFSNRWLIPRLSGFNSLFPDITLNIAARTDPFILPGSGFDAVIHFEHSAWTGMRMQFLFQENLLPVCNPALLTNNDVNRQLNELPRIHRRQNPEAWHHYARESGIRLDNPAQGVRYDLHEMTIAAVIAGHGVALVPRMYVENELSCGMLVSPWPASDCLSKKFCLVKPMETGINEDALESFERWLLAEMNTLTSLNAER,not soluble
21,SPMANSGPLCCTICHERLEDTHFVQCPSVPSHKFCFPCSRESIKAQGATGEVYCPSGEKCPLVGSNVPWAFMQGEIATIL,soluble
22,MAHHHHHHMSLMDCKYHKHHLYADKFWWSPSPETNHMRGDAEFKWKGNELIAYGDYNAHMQHPANFVTSSSSGSSGSGAATSKSAAAAAGSKKGASARPWFRRTVVVRKSQASDTKPLSTASKIAAAGTSK,not soluble
